*1 amine or outer side, *2 acyl side, *3 side chain or, on linkers, in order; H or OH if unused. Where no end group is shown, it is not given here. [ ]: non-standard residue; d: D form. 3‑pTza = 3-phosphoryltriazolylalanine, non-hydrolysable phosphonate triazole analogue of 3-phosphohistidine, O=C([C@H](Cn1cc(P(=O)(O)O)nn1)N[*:1])[*:2]; pY = N[C@@H](Cc1ccc(OP(=O)(O)O)cc1)C(=O)O
T1: Peptide-4C (Histone H4 H18, 3-pTza) (mammalian, N-terminus assumed; SMILES …)
T1 construct: also called GAKR-3-pTza-RKVL
T1 peptide: GAKR[3‑pTza]RKVL-NH2

T2: Peptide-3C (NME1 H118, 3-pTza) (mammalian, N-terminus assumed; SMILES …)
T2 construct: also called RNII-3-pTza-GSDS
T2 peptide: RNII[3‑pTza]GSDS-NH2

T3: Peptide-2C (PGAM H11, 3-pTza) (mammalian, N-terminus assumed; SMILES …)
T3 construct: also called VLIR-3-pTza-GESA; PGAM peptide
T3 peptide: VLIR[3‑pTza]GESA-NH2

T4: Peptide-1C (ACLY-like H760, 3-pTza) (N-terminus assumed; SMILES C[C@H](N)C(=O)NCC(=O)N[C@@H](C)C(=O)NCC(=O)N[C@@H](Cn1cc(P(=O)(O)O)nn1)C(=O)N[C@@H](C)C(=O)NCC(=O)N[C@@H](C)C(=O)NCC(N)=O)
T4 construct: also called AGAG-3-pTza-AGAG; A/G motif peptide (based on ACLY)
T4 peptide: AGAG[3‑pTza]AGAG-NH2

T5: Nck pY105 peptide (CGERLpYDLNMPAYVK)
T5 construct: also called pTyr (NCK) peptide; pTyr peptide (Nck pY105)
T5 peptide: CGERL[pY]DLNMPAYVK

T6: Eck (Ephrin A2) pY588 peptide (CLKPLKTpYVD)
T6 construct: also called Eck/EphA2 pTyr peptide
T6 peptide: CLKPLKT[pY]VD

T7: Eck (Ephrin A2) Y588 peptide (CLKPLKTYVD)
T7 construct: also called unphosphorylated Eck peptide
T7 peptide: CLKPLKTYVD

T8: Nck Y105 peptide (CGERLYDLNMPAYVK)
T8 construct: also called unphosphorylated Nck peptide
T8 peptide: CGERLYDLNMPAYVK

T9: FAK pY397 peptide (AVSVSETDDpYAEIIDEEDTYT) (phosphotyrosine at position 10 (pY397))
T9 construct: also called FAK pTyr peptide
T9 peptide: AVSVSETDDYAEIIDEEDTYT

T10: ACLY (ATP-citrate lyase), 3-pHis on H760 (mammalian, UniProt P53396 1-1101, 3-phosphohistidine at H760)
T10 sequence (looked up): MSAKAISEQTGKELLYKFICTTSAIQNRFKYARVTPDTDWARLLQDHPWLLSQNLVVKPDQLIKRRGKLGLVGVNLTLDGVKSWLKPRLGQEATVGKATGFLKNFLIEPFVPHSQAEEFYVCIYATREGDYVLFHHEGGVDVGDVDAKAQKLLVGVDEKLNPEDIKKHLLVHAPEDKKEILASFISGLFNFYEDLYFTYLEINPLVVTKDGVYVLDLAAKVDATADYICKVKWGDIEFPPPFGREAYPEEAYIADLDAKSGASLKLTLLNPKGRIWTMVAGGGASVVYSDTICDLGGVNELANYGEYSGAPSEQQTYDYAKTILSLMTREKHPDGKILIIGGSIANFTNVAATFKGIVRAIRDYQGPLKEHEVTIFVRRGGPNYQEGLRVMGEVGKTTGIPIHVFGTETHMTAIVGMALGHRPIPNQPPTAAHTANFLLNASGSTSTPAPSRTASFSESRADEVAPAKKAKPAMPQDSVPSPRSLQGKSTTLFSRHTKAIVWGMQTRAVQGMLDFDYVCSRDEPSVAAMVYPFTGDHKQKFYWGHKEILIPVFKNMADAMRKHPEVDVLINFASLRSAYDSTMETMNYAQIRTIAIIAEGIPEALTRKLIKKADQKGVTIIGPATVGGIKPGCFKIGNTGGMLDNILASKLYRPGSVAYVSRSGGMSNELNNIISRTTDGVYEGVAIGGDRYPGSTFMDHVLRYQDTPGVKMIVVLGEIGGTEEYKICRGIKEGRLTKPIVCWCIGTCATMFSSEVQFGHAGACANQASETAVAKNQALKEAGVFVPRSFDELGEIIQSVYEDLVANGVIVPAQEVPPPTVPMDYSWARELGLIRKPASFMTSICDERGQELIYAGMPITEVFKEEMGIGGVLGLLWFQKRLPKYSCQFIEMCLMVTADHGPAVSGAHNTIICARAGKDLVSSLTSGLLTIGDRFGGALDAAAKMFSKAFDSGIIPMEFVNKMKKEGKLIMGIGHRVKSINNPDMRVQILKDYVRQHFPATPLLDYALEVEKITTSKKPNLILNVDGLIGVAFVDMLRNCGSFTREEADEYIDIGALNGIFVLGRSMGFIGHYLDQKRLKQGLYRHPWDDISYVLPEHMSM

B1: 3-pHis mAb SC56-2 (antibody, V domains shown)
VH: SVKESEGGLIKPGGILTLTCTASGFSLSSYGFSWVRQAPGKGLEHIGYLHANGRAYYATWAKSRSTITRNTNLNTVTLQLTSLTAADTATYFCAKIGSVSDVAIWGPGTLVTVSS
VL: DPVMTQTPSSTSAAVGGTVTINCQSSESIYNNKNLAWYQQKPGQSPRRLIYSISTLASGVSSRFKGSGSGTQFTLTISDVQCDDAATYYCVGYYYSGGYYYSGSAAYYAFGGGTEVVVKG
notes: Rabbit hybridoma monoclonal IgG; also called SC56s (subclones of MC56)
B2: 3-pHis mAb SC44-8 (antibody, V domains shown)
VH: ESGRGLVQPGGSLTLTCTASGFSIDSYGFSWVRQAPGKGLEHIGYLTAGGRAFYASWAKSRSTITRNTNENTVTLKMTSLTAADTATYFCAKLGSGNPVAIWGPGTLVTVSS
VL: DPVMTPTPSFTSAAVGGTVTINCQSSQSVWRNKNLAWYQQKPGQPPKRLIYAIATLDSGVPSRFSGSGSGTQFTLTISDVQCDDAATYYCVGHYGSENDAYYAFGGGTEVVVKG
notes: Rabbit hybridoma monoclonal IgG; also called SC44s (subclones of MC44)

What was measured:
[1] = target: T1, Peptide-4C (Histone H4 H18, 3-pTza); assay: 3-pTza peptide dot blot array
Experimental: (§1) The 3-pHis antibodies bound only the 3-pTza peptides and the 1-pHis antibodies bound only the 1-pTza peptides, regardless of sequence (FIG. 4A). Identical membranes were probed with 1-pHis mAbs as part of our screening process to select mAbs with the broadest sequence recognition (FIG. 4B). […] 3-pHis mAb SC39-4 was able to detect all 3-pTza peptides down to 800 pg; however, binding to the KCa3.1 peptide was relatively poor (100 ng). […] SC44 detected the A/G motif peptide (based on ACLY) and the immunizing peptide library down to 160 pg and 800 pg respectively, confirming its sequence bias.
(§2) pTza peptide dot blot arrays: 1-pTza, 3-pTza or His was incorporated into synthetic peptides of defined sequences from mammalian proteins with mapped pHis sites. The peptides used were as follows: ACLY-like H760 (AGAG-X-AGAG, SEQ ID NO: 62), PGAM H11 (VLIR-X-GESA, SEQ ID NO: 63), NME1 H118 (RNII-X-GSDS, SEQ ID NO: 64), Histone H4 H18 (GAKR-X-RKVL, SEQ ID NO: 65), KCa3.1 H358 (VRLK-X-RKLR, SEQ ID NO: 66) and GNB1 H266 (MTYS-X-DNII, SEQ ID NO: 67) where X=His, 1-pTza or 3-pTza. Peptides were dissolved in water at a stock concentration of 1 mg/ml. 1:5 serial dilutions (500, 100, 20, […] ng/ul) were prepared for each peptide and 1 ul of each dilution was spotted on nitrocellulose membrane and allowed to dry for 1-2 hr at RT. […] Immunoblotting was performed as described above.

[2] = target: T2, Peptide-3C (NME1 H118, 3-pTza); assay: 3-pTza peptide dot blot array
Experimental: as §1, §2

[3] = target: T3, Peptide-2C (PGAM H11, 3-pTza); assay: 3-pTza peptide dot blot array
Experimental: as §1, §2

[4] = target: T4, Peptide-1C (ACLY-like H760, 3-pTza); assay: 3-pTza peptide dot blot array
Experimental: as §1, §2

[5] = target: T5, Nck pY105 peptide (CGERLpYDLNMPAYVK); assay: pTyr peptide dot blot
[6] = target: T6, Eck (Ephrin A2) pY588 peptide …; assay: pTyr peptide dot blot
[7] = target: T7, Eck (Ephrin A2) Y588 peptide …; assay: pTyr peptide dot blot
[8] = target: T8, Nck Y105 peptide (CGERLYDLNMPAYVK); assay: pTyr peptide dot blot
[9] = target: T9, FAK pY397 peptide …; assay: pTyr peptide dot blot
[10] = target: T10, ACLY (ATP-citrate lyase), 3-pHis on H760; assay: immunoblot of mammalian cell lysates
Experimental: (§3) Immunoblotting with anti-pHis antibodies: In general, immunoblotting with anti-pHis antibodies was performed with modifications to standard procedures to help preserve pHis for detection. Buffers were adjusted to pH 8-9 to stabilize pHis and methods were modified to avoid heating samples. Protein samples were prepared in pH 8.8 sample buffer (5×=10% SDS, 250 mM Tris-HCl, pH 8.8, 0.02% Bromophenol blue, 50% glycerol, 50 mM EDTA, 500 mM DTT) for electrophoresis. Mammalian whole cell lysates were prepared by rinsing 70-100% confluent 10 cm² dishes twice with 5 ml cold TD buffer (TBS −/−, pH 8). Cells were scraped directly into 2× pH 8.8 sample buffer, incubated on ice and a cup horn sonicator was used (3-5×5 sec bursts) to disrupt cells and shear DNA. Lysates were clarified by centrifugation (14,000×g for 5-15 min at 4° C.) and analyzed immediately using freshly prepared Bis-Tris polyacrylamide minigels with a modified, pH 8.8 stacking gel and either 10% or 12.5% resolving gels. Electrophoresis buffer recipes were as follows: Running Buffer: (1×20 L, pH 8.5) 20 g SDS, 60 g Trizma Base, 288 g glycine, dH₂0 to 20 L, Transfer Buffer: (1×4 L, pH 8.5) 56.7 g glycine, 4 g SDS, 12 g Trizma Base, 800 ml MeOH, dH₂0 to 4 L. All electrophoresis steps were performed at 4° C. and samples were resolved at 90-100V for 2-3 hr. […]

[11] = target: T11, mammalian SCS (succinyl-CoA synthetase), 3-pHis on H299 (mammalian, UniProt P53597 41-346, 3-phosphohistidine at H299); assay: immunoblot of mammalian cell lysates
T11 construct: also called Phospho-SCS
T11 sequence (P53597 41-346): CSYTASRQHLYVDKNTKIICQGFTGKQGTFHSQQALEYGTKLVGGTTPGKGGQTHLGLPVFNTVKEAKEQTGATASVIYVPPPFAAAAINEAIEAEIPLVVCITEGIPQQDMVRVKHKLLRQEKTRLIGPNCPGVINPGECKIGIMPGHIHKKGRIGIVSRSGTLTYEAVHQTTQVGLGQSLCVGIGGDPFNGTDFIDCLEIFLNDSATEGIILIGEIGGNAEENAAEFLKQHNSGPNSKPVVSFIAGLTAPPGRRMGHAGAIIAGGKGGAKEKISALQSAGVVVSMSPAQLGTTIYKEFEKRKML
Experimental: as §3

[12] = target: T12, phospho-PGAM (phosphoglycerate mutase with 3-pHis on H11) (human, UniProt P18669 1-254, 3-phosphohistidine at H11); assay: immunoblot of HeLa and FLAG-NME1 293 cell lysates
T12 construct: Used both for the purified recombinant protein and for the endogenous protein in 293 cell lysates; also called pPGAM; in vitro phosphorylated PGAM
T12 sequence (P18669 whole entry): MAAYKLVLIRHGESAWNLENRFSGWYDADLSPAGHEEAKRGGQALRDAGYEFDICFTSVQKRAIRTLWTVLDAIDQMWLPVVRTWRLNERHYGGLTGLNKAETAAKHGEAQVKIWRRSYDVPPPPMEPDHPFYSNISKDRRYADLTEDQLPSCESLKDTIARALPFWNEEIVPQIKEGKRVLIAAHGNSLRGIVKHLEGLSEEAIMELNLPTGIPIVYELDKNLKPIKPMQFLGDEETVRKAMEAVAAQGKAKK
Experimental: FIGS. 6A-6E. 3-pHis Antibody Screening. (FIG. 6A) High throughput, slot blot screening of 3-pHis hybridoma subclones. Cell supernatants containing 3-pHis mAbs were screened as described using lysates from E. coli transformed with GST-PGAM. (FIG. 6B) Representative immunoblots using indicated subclones are shown. E. coli lysates identical to those used in ([…]) were treated with and without heating to 95° C. for 10 min to determine if the detected bands were heat-sensitive. Bacterial (FIG. 6B) and mammalian SCS (FIG. 6C) is detected by 3-pHis mAb SC44-8. (FIG. 6C) Mammalian cell lysates from HeLa and FLAG-NME1 293 cells were probed with mAb SC44-8. Phospho-SCS and ACLY, but not PGAM, is recognized by this mAb. (FIG. 6D) SCS H299 (SEQ ID NO: 69) is aligned with ACLY H760 (SEQ ID NO: 68) to highlight amino acids the flanking the pHis site are identical and have a G-pH-A-H-A motif that is different from the pHis site on PGAM at H11 (SEQ ID NO:70). […]
Immunoblotting with anti-pHis antibodies: In general, immunoblotting with anti-pHis antibodies was performed with modifications to standard procedures to help preserve pHis for detection. […] Lysates were clarified by centrifugation (14,000×g for 5-15 min at 4° C.) and analyzed immediately using freshly prepared Bis-Tris polyacrylamide minigels with a modified, pH 8.8 stacking gel and either 10% or 12.5% resolving gels.

| Binder | binding result [1] | binding result [2] | binding result [3] | binding result [4] | binding result [5] | binding result [6] | binding result [7] | binding result [8] | binding result [9] | binding result [10] | binding result [11] | binding result [12] |
| --- | --- | --- | --- | --- | --- | --- | --- | --- | --- | --- | --- | --- |
| B1 | binds | binds | binds | binds | no binding | no binding | no binding | no binding | no binding | – | – | – |
| B2 | – | – | – | – | no binding | no binding | no binding | no binding | no binding | binds | binds | no binding |

From patent US20170210824A1 (SALK INSTITUTE FOR BIOLOGICAL STUDIES, published 2017)
